# Test results reported in patent US20220242945A1 (SORRISO PHARMACEUTICALS, published 2022).
# T1: recombinant human IL-23 (human, UniProt Q9NPF7 20-189; P29460 23-328)
# T1 construct: Heterodimer of p19 and p40; also called hIL-23; interleukin-23; not shown: single C-terminal 6xHis tag
# T1 sequence 1: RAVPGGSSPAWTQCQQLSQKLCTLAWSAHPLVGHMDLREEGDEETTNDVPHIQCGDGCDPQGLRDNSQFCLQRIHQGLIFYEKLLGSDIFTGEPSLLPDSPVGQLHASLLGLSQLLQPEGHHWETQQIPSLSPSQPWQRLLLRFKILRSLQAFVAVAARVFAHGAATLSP
# T1 sequence 2: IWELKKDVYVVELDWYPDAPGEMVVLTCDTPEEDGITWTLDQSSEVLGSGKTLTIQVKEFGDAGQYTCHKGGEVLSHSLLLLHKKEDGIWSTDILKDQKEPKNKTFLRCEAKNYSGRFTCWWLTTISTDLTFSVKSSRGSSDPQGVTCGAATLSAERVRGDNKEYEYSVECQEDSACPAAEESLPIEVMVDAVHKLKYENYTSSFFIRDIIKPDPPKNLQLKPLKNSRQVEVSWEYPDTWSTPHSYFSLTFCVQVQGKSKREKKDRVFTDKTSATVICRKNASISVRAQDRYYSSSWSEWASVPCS
# T2: THP-1 derived nhIL-23 (human, UniProt Q9NPF7 20-189; P29460 23-328)
# T2 sequence (looked up) 1: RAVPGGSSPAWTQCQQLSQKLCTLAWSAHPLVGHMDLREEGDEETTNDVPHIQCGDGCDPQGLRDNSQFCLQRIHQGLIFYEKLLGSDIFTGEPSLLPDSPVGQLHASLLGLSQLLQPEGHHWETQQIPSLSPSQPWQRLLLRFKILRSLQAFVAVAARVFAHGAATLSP
# T2 sequence (looked up) 2: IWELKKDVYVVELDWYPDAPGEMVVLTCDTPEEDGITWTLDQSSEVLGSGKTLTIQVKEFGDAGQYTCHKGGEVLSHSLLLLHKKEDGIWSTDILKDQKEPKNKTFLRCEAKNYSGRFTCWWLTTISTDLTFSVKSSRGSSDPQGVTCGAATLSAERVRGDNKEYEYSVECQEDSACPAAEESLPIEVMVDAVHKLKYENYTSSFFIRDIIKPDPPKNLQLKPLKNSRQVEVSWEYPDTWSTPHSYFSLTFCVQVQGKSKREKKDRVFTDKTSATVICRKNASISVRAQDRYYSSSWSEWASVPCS
# B1: ID-38F (VHH)
# VHH: DVQLVESGGGLVQPGGSLKLSCAASGFDFSSHWMYWVRQAPGKELEWLSEINTNGLITHYGDSVKGRFTVSRNNAANKMYLELTRLEPEDTALYYCARNQHGLNKGQGTQVTVSS
# notes: also called anti-TNF-alpha ICVD ID-38F
# B2: 10E2 (VHH)
# VHH: EVQLVESGGGLAQAGGSLRLSCAPSGRAFSGSAMGWFRQVPGKEREFVGVIIWTGGYTYYADSVKGRFTISRDSAKNTVYLQMDSLKPEDTAVYYCAARTPNSSWFPTTLYEYDYWGQGTQVTVSS
# notes: Purified primary clone made in E. coli; not shown: C-terminal FLAG and 6xHis tags from vector pMEK222
# B3: FA1K (bispecific antibody)
# chain: DVQLVESGGGLVQPGGSLKLSCAASGFDFSSHWMYWVRQAPGKELEWLSEINTNGLITHYGDSVKGRFTVSRNNAANKMYLELTRLEPEDTALYYCARNQHGLNKGQGTQVTVSSGGGGSGGGGSKGGGGSGGGGSEVQLVESGGGQVQPGGSLSLSCESSVSIWSFKVMGWFRQVPGKQRELVATITTGGSPDYSDSVKGRFTISRDYDKRTLYLQMNSLKPEDTAVYYCAGRLWAHITSSGHDVWGQGTQVTVSS
# notes: Before trypsin treatment; also called heterobihead anti-IL-23/anti-TNF-alpha construct; ID-38F-(G4S)2-K-(G4S)2-ID-L253T
# B4: 10G10 (VHH)
# VHH: EVQLVESGGGLVQAGTSLRLSCAASGRTFSNYIMGWFRQAPGKEREFVAIITANGVATDYRDSVKGRFTISRDNARNTGYLEMNSLKPEDTAVYFCALRTRSGSLFDPGTFDYWGQGTQVTVSS
# notes: as for B2
# B5: ID-L210T (VHH)
# VHH: EVQLVESGGGQVQPGGSLRLSCESSVSIWSFKVMGWFRQVPGKQRELVATITTGGSPDYSDSVKGRFTISRDYDKRTLYLQMNSLKPEDTARYYCAGRLWAHITSSGHDVWGQGTQVTVSS
# notes: Relative to ID-L253T: D1E, S19R, V92R
# B6: ID-L252T (VHH)
# VHH: EVQLVESGGGQVQPGGSLSLSCESSVSIWSFKVMGWFRQAPGKELELVATITTGGSPDYSDSVKGRFTLSRDYDKRTVYLQMNSLKPEDTAVYYCAGRLWAHITSSGHDVWGQGTQVTVSS
# notes: Relative to ID-L253T: D1E, V40A, Q44E, R45L, I69L, L78V
# B7: ID-L243T (VHH)
# VHH: EVQLVESGGGQVQPGGSLRLSCESSVSIWSFKVMGWFRQVPGKQRELVATITTGGSPDYSDSVKGRFTISRDYDKRTLYLQMNSLKSEDTARYYCAGRLWAHITSSGHDVWGQGTQVTVSS
# notes: Relative to ID-L253T: D1E, S19R, P87S, V92R
# B8: ID-L249T (VHH)
# VHH: EVQLVESGGGQVQPGGSLSLSCESSVSIWSFKVMGWFRQAPGKQLELVATITTGGSPHYSDSVKGRFTISRDYDKRTLYLQMNSLKPEDTAVYYCAGRLWAHITSSGHDVWGQGTQVTVSS
# notes: Relative to ID-L253T: D1E, V40A, R45L, D58H
# B9: ID-L250T (VHH)
# VHH: EVQLVESGGGQVQPGGSLSLSCESSVSIWSFKVMGWFRQAPGKQLEFVATITTGGSPHYSDSVKGRFTISRDYDKRTLYLQMNSLKPEDTAVYYCAGRLWAHITSSGHDVWGQGTQVTVSS
# notes: Relative to ID-L253T: D1E, V40A, R45L, L47F, D58H
# B10: ID-L251T (VHH)
# VHH: EVQLVESGGGQVQPGGSLRLSCESSVSIWSFKVMGWFRQVPGKEREFVATITTGGSPHYSDSVKGRFTISRDYDKRTLYLQMNSLKPEDTAVYYCAGRLWAHITSSGHDVWGQGTQVTVSS
# notes: Relative to ID-L253T: D1E, S19R, Q44E, L47F, D58H
# B11: ID-L248T (VHH)
# VHH: EVQLVESGGGQVQPGGSLSLSCESSVSIWSFKVMGWFRQVPGHQLELVATITTGGSPDYSDSVKGRFTISRDYDKRTLYLQMNSLKPEDTAVYYCAGRLWAHITSSGHDVWGQGTQVTVSS
# notes: Relative to ID-L253T: D1E, K43H, R45L
# B12: ID-L238T (VHH)
# VHH: EVQLVESGGGQVQPGGSLRLSCESSVSIWSFKVMGWFRQAPGKQRELVATITTGGSPDYSDSVKGRFTISRDYDKRTLYLQMNSLKPEDTARYYCAGRLWAHITSSGHDVWGQGTQVTVSS
# notes: Relative to ID-L253T: D1E, S19R, V40A, V92R
# B13: ID-L246T (VHH)
# VHH: EVQLVESGGGQVQPGGSLSLSCESSVSIWSFKVMGWFRQAPGKQRELVATITTGGSPDYSDSVKGRFTLSRDYDKRTVYLQMNSLKPEDTAVYYCAGRLWAHITSSGHDVWGQGTQVTVSS
# notes: Relative to ID-L253T: D1E, V40A, I69L, L78V
# B14: ID-L237T (VHH)
# VHH: EVQLVESGGGQVQPGGSLSLSCESSVSIWSFKVMGWFRQVPGKQRELVATITTGGSPDYSDSVKGRFTISRDYDKRTLYLQMNSLKPEDTARYYCAGRLWAHITSSGHDVWGQGTQVTVSS
# notes: Relative to ID-L253T: D1E, V92R
# B15: ID-L241T (VHH)
# VHH: EVQLVESGGGQVQPGGSLRLSCESSVSIWSFKVMGWFRQVPGKQRELVATITTGGSPHYSDSVKGRFTISRDYDKRTLYLQMNSLKPEDTARYYCAGRLWAHITSSGHDVWGQGTQVTVSS
# notes: Relative to ID-L253T: D1E, S19R, D58H, V92R
# B16: ID-L244T (VHH)
# VHH: EVQLVESGGGQVQPGGSLRLSCESSVSIWSFKVMGWFRQVPGKQRELVATITTGGSPDYSDSVKGRFTISRDYDKRTLYLQMNSLKPEDTAVYYCAGRLWAHITSSGHDVWGQGTQVTVSS
# notes: Relative to ID-L253T: D1E, S19R
# B17: ID-L239T (VHH)
# VHH: EVQLVESGGGQVQPGGSLRLSCESSVSIWSFKVMGWFRQVPGKQLELVATITTGGSPDYSDSVKGRFTISRDYDKRTLYLQMNSLKPEDTARYYCAGRLWAHITSSGHDVWGQGTQVTVSS
# notes: Relative to ID-L253T: D1E, S19R, R45L, V92R
# B18: ID-L242T (VHH)
# VHH: EVQLVESGGGQVQPGGSLRLSCESSVSIWSFKVMGWFRQVPGKQRELVATITTGGSPDYRDSVKGRFTISRDYDKRTLYLQMNSLKPEDTARYYCAGRLWAHITSSGHDVWGQGTQVTVSS
# notes: Relative to ID-L253T: D1E, S19R, S60R, V92R
# B19: ID-L245T (VHH)
# VHH: EVQLVESGGGQVQPGGSLSLSCESSVSIWSFKVMGWFRQVPGKQRELVATITTGGSPDYSDSVKGRFTISRDYDKRTLYLQMNSLKPEDTAVYYCAGRLWAHITSSGHDVWGQGTQVTVSS
# notes: Relative to ID-L253T: D1E
# B20: ID-L247T (VHH)
# VHH: EVQLVESGGGQVQPGGSLSLSCESSVSIWSFKVMGWFRQAPGKQLELVATITTGGSPDYSDSVKGRFTISRDYDKRTLYLQMNSLKPEDTAVYYCAGRLWAHITSSGHDVWGQGTQVTVSS
# notes: Relative to ID-L253T: D1E, V40A, R45L
# B21: 12G1 (VHH)
# VHH: EVQLVESGGGLVQPGGSLRLSCAASVSIWSFKVMGWYRQVPGKQRELVATITTGGSPDYADSVKGRFTMSRDYDKRTVFLEMDSVKPEDAAVYYCNGRLWAHLTSSGHDVWGQGTRVTVSS
# notes: Purified primary clone made in E. coli; also called Family L ICVD 12G1; not shown: C-terminal FLAG and 6xHis tags from vector pMEK222
# B22: 1E2 (VHH)
# VHH: EVQLVESGGGLVQPGGSLRLSCAASVSIWSFKVMGWYRQVPGKQRELVATITTGGSPDYADSVKGRFTMSRDYDKRTVFLEMDSVKPEDAAVYYCNGRLWAHLTSSGHDVWGQGTQVTVSS
# notes: Purified primary clone made in E. coli; also called Family L ICVD 1E2; not shown: C-terminal FLAG and 6xHis tags from vector pMEK222
# Columns and labels:
# human TNFα = molecular target: T3, human TNFα (human, UniProt P01375 77-233); assay: competition ELISA on plate-coated human TNFα; competitor 2 nM biotinylated adalimumab, detected with ExtrAvidin-HRP, A450
# T3 construct: also called TNF-alpha
# T3 sequence (P01375 77-233 limits assumed): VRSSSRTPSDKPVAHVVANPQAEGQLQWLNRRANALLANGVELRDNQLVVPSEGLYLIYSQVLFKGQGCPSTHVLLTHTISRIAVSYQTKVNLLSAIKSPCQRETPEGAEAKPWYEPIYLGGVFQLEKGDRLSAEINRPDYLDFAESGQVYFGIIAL
# Method: ELISA plates were coated with 100 ng/mL human TNFα in 250 μg/mL bovine serum albumin (BSA) in phosphate buffered saline (1×PBS) and blocked with 1% BSA in 1× PBS. […] Otherwise 1% BSA was used as an assay diluent.
# recombinant human IL-23 [1] = molecular target: T1, recombinant human IL-23; assay: IL-23-IL-23R neutralisation ELISA (Evaluation Method A): ICVD titrated with recombinant human IL-23, binding to coated IL-23R-Fc
# Method: (§1) Maxisorp 96-well plates were coated overnight with 50 μl/well 0.3 μg/ml IL-23R-Fc then blocked with 4% milk, 1% BSA.
# recombinant human IL-23 [2] = molecular target: T1, recombinant human IL-23; assay: IL-23-IL-23R neutralisation ELISA (sheet title 'IL-23 IL23R ELISA'); construct blocks binding of IL-23 to IL-23R; A450
# THP-1 derived nhIL-23 = molecular target: T2, THP-1 derived nhIL-23; assay: cell-based or functional assay
# recombinant human IL-23 [3] = molecular target: T1, recombinant human IL-23; assay: IL-23-IL-23R neutralisation ELISA; average of 5 independent experiments
# Method: as §1
# (§2) The Family L ICVD 12G1 underwent sequence modification to produce multiple variant ICVDs. These variant ICVDs were tested in the potency and protease stability assays detailed above.
# recombinant human IL-23 [4] = molecular target: T1, recombinant human IL-23; assay: IL-23-IL-23R neutralisation ELISA; one experiment, left out of the average by the filing as an outlier
# recombinant human IL-23 [5] = molecular target: T1, recombinant human IL-23; assay: IL-23-IL-23R neutralisation ELISA
# Method: as §1, §2
Binder,"Mouse splenocyte (EC50; mIL-17 secretion, Evaluation Method C) (THP-1 derived nhIL-23)",EC50 (recombinant human IL-23 [5]),other results
B1,–,–,binding result (human TNFα): binds
B2,–,–,EC50 (recombinant human IL-23 [1]): 1.45 nM
B3,–,–,binding result (recombinant human IL-23 [2]): binds; binding result (human TNFα): binds
B4,–,–,EC50 (recombinant human IL-23 [1]): 1.47 nM
B5,5.63 nM,–,EC50 (recombinant human IL-23 [3]): 0.32 nM; EC50 (recombinant human IL-23 [4]): 1.1 nM
B6,5.2 nM,0.26 nM,–
B7,5 nM,0.27 nM,–
B8,4.27 nM,0.74 nM,–
B9,–,6.95 nM,–
B10,5.74 nM,1.99 nM,–
B11,4.47 nM,0.17 nM,–
B12,5.54 nM,0.2 nM,–
B13,–,2.15 nM,–
B14,6.35 nM,0.24 nM,–
B15,3.51 nM,0.31 nM,–
B16,6.62 nM,0.24 nM,–
B17,3.84 nM,0.26 nM,–
B18,3.01 nM,0.22 nM,–
B19,–,0.25 nM,–
B20,4.52 nM,0.31 nM,–
B21,–,–,EC50 (recombinant human IL-23 [1]): 0.387 nM
B22,–,–,EC50 (recombinant human IL-23 [1]): 0.546 nM
